# T1: His-tagged SMAD4 R361C, Q13485
# T1 chain: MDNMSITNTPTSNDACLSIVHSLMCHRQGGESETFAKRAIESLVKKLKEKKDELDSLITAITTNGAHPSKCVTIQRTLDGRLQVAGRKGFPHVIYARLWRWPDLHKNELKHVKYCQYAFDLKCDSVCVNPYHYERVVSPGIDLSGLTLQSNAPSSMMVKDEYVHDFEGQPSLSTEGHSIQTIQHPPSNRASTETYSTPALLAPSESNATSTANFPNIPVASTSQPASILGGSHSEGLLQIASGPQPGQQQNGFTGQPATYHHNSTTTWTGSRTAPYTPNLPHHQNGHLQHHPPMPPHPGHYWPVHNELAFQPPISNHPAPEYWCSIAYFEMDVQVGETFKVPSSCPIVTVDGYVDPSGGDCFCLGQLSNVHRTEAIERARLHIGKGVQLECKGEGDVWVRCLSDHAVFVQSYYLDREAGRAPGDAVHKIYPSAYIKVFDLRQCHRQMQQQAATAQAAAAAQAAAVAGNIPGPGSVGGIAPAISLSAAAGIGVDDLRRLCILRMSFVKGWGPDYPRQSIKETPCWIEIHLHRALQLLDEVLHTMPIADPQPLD
# T2: His-tagged SMAD4 R361H, Q13485
# T2 chain: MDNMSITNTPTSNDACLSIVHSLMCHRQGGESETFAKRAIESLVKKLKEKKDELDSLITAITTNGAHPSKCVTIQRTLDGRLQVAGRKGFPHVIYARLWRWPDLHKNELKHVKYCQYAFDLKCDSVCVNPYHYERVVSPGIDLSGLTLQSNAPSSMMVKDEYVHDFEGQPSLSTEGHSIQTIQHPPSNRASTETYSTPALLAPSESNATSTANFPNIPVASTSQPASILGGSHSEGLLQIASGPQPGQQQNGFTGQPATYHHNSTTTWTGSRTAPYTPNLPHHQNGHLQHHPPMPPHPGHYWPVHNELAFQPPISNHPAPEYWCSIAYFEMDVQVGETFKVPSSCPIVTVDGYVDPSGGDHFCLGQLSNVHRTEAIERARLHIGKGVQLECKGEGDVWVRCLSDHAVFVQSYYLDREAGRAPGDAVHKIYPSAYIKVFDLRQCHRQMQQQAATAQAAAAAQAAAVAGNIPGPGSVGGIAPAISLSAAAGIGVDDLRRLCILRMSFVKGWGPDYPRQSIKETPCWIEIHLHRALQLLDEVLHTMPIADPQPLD
# T3: His-tagged SMAD4 WT (Mothers against decapentaplegic homolog 4), Q13485
# T3 chain: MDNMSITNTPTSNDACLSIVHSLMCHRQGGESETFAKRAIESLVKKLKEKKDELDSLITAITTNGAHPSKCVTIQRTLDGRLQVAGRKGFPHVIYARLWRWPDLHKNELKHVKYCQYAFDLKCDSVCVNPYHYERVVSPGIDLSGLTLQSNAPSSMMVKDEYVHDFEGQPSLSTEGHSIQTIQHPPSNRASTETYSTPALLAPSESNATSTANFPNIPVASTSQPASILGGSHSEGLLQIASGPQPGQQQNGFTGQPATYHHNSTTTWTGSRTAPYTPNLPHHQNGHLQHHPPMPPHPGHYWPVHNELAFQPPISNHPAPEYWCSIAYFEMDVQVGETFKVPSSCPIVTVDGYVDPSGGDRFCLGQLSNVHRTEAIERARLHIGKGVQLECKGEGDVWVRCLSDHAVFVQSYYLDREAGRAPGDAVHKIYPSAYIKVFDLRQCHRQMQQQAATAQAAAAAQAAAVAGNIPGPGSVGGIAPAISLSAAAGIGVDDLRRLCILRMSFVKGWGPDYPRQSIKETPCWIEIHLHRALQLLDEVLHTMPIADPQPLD
# Key:
# Experiment in all cases: AlphaScreen or HTRF
# Conditions in all cases: remark: other sources report otherwise
# [1] = molecular target: T1, His-tagged SMAD4 R361C, Q13485
# [2] = molecular target: T2, His-tagged SMAD4 R361H, Q13485
# [3] = molecular target: T3, His-tagged SMAD4 WT (Mothers against …)
binder,measurement,setting,value
"Flag-tagged SMAD3 WT, P84022 1-425 (natural protein) MSSILPFTPPIVKRLLGWKKGEQNGQEEKWCEKAVKSLVKKLKKTGQLDELEKAITTQNVNTKCITIPRSLDGRLQVSHRKGLPHVIYCRLWRWPDLHSHHELRAMELCEFAFNMKKDEVCVNPYHYQRVETPVLPPVLVPRHTEIPAEFPPLDDYSHSIPENTNFPAGIEPQSNIPETPPPGYLSEDGETSDHQMNHSMDAGSPNLSPNPMSPAHNNLDLQPVTYCEPAFWCSISYYELNQRVGETFHASQPSMTVDGFTDPSNSERFCLGLLSNVNRNAAVELTRRHIGRGVRLYYIGGEVFAECLSDSAIFVQSPNCNQRYGWHPATVCKIPPGCNLKIFNNQEFAALLAQSVNQGFEAVYQLTRMCTIRMSFVKGWGAEYRRQTVTSTPCWIELHLNGPLQWLDKVLTQMGSPSIRCSSVS",reduction of the PPI signal against SMAD4 WT,[1],75%
same,reduction of the PPI signal against SMAD4 WT,[2],75%
same,decrease of the PPI signal with 5'-FAM-SBE4 Mut dsDNA against WT dsDNA,[3],15%

# — publication doi:10.1101/2023.07.15.549169
